Assay results published in publication PMC12905440, “Biochemical principles of miRNA targeting in flies”.

Legend:
[1] = biological target: T1, Ago1 (RISC, embryo lysate) (Drosophila w[*]; AGO2[414] embryos, 0-8 …, UniProt A1Z9J5 1-950); test: competition; let-7 guide; reference; RBNS: 20 mM HEPES-KOH pH 7.9, 100 mM KOAc, 3.5 mM Mg(OAc)2, 0.05% CHAPS, 2 mM DTT, 8% glycerol, BSA, tRNA, 25 C, 2 h; filter binding: 25 mM HEPES-KOH pH 7.9, 110 mM KOAc, 3.5 mM Mg(OAc)2, 2 mM DTT, 25 C; competition: 18 mM HEPES-KOH pH 7.4, 100 mM KOAc, 3 mM Mg(OAc)2, 5 mM DTT, 25 C; details: protein: native; g2-21 paired
FLAG-Ago1 (RISC) [2] = biological target: T2, FLAG-Ago1 (RISC) (Drosophila melanogaster, UniProt A1Z9J5 1-950); test: RNA Bind-n-Seq (filter binding, sequencing, MLE); miR-11 guide; 20 mM HEPES-KOH pH 7.9, 100 mM potassium acetate, 3.5 mM magnesium acetate, 0.05% CHAPS, 2 mM DTT, 8% glycerol, 0.05 ug/ul BSA, 0.01 mg/ml yeast tRNA, 100 nM RNA library, 25 C, 2 h; details: protein: recombinant; tags: FLAG
FLAG-Ago1 (RISC) [3] = biological target: T2, FLAG-Ago1 (RISC); test: RNA Bind-n-Seq (filter binding, sequencing, MLE); let-7 guide; 20 mM HEPES-KOH pH 7.9, 100 mM potassium acetate, 3.5 mM magnesium acetate, 0.05% CHAPS, 2 mM DTT, 8% glycerol, 0.05 ug/ul BSA, 0.01 mg/ml yeast tRNA, 100 nM RNA library, 25 C, 2 h; details: protein: recombinant; tags: FLAG; t2-t8 plus t1A
[4] = biological target: T1, Ago1 (RISC, embryo lysate); test: competition; let-7 guide; nearly same affinity as fully complementary; RBNS: 20 mM HEPES-KOH pH 7.9, 100 mM KOAc, 3.5 mM Mg(OAc)2, 0.05% CHAPS, 2 mM DTT, 8% glycerol, BSA, tRNA, 25 C, 2 h; filter binding: 25 mM HEPES-KOH pH 7.9, 110 mM KOAc, 3.5 mM Mg(OAc)2, 2 mM DTT, 25 C; competition: 18 mM HEPES-KOH pH 7.4, 100 mM KOAc, 3 mM Mg(OAc)2, 5 mM DTT, 25 C; details: protein: native; g2-21 paired, G:U at g4
[5] = biological target: T1, Ago1 (RISC, embryo lysate); test: competition; let-7 guide; RBNS: 20 mM HEPES-KOH pH 7.9, 100 mM KOAc, 3.5 mM Mg(OAc)2, 0.05% CHAPS, 2 mM DTT, 8% glycerol, BSA, tRNA, 25 C, 2 h; filter binding: 25 mM HEPES-KOH pH 7.9, 110 mM KOAc, 3.5 mM Mg(OAc)2, 2 mM DTT, 25 C; competition: 18 mM HEPES-KOH pH 7.4, 100 mM KOAc, 3 mM Mg(OAc)2, 5 mM DTT, 25 C; details: protein: native; g2-21 paired, G:U at g4 and g5

T1 sequence (A1Z9J5 entry or part of it): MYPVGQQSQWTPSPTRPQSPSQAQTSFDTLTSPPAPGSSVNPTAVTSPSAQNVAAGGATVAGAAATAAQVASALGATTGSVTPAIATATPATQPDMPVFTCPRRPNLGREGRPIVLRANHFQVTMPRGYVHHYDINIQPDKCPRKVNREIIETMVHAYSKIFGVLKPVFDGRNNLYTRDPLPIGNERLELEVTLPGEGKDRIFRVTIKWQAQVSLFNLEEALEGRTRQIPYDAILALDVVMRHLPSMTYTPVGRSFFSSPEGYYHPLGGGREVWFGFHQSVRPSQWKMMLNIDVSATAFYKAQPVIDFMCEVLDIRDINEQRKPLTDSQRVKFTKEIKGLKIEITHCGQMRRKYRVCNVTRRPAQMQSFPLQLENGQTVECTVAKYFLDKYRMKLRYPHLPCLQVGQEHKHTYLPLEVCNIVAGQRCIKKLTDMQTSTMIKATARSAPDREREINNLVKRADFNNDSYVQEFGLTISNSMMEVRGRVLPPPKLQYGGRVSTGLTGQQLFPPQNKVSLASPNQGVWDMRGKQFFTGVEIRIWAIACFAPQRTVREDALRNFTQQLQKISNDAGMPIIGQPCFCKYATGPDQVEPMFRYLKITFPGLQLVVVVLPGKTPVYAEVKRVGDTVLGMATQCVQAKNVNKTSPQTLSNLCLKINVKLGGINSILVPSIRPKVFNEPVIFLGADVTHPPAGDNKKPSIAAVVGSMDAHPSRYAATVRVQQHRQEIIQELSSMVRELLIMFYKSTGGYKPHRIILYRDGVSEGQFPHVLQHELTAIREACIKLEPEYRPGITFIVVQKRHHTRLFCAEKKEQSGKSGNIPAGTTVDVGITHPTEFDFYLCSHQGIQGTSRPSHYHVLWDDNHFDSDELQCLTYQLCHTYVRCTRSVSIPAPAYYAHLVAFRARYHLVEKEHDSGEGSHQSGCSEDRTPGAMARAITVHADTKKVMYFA
T2 sequence (A1Z9J5 entry or part of it): as above

B1: let-7 guide / g2-21 complementary target (dsRNA)
RNA 1: GAUACUAUACAACCUACUACCUCAACCU
RNA 2: UGAGGUAGUAGGUUGUAUAGU
modifications: 2'-O-methyl C and U around a phosphorothioate (CmCpsmU) in target
Question: Does B1 bind [1]?
Answer: binds

B2: miR-11 / 6mer-A1 (mixed)
RNA 1: GUGAUA
RNA 2: CAUCACAGUCUGAGUUCUUGC
modifications: guide 5' phosphate
Question: For B2, which Kd (FLAG-Ago1 (RISC) [2]) is on record?
Answer: 0.404 ± 0.0996 nM

B3: miR-11 / 6mer (mixed)
RNA 1: UGUGAU
RNA 2: CAUCACAGUCUGAGUUCUUGC
modifications: guide 5' phosphate
Question: Which Kd (FLAG-Ago1 (RISC) [2]) does the source give for B3 here?
Answer: 0.388 ± 0.0906 nM

B4: let-7 / 8mer (mixed)
RNA 1: CUACCUCA
RNA 2: UGAGGUAGUAGGUUGUAUAGU
modifications: guide 5' phosphate
Question: For B4, which Kd (FLAG-Ago1 (RISC) [3]) is on record?
Answer: 0.005 ± 0.00169 nM

B5: let-7 guide / g2-21 target, G:U at position 4 (dsRNA)
RNA 1: GAUACUAUACAACCUACUACUUCAACCU
RNA 2: UGAGGUAGUAGGUUGUAUAGU
modifications: 2'-O-methyl C and U around a phosphorothioate (CmCpsmU) in target
Question: Does B5 bind [4]?
Answer: binds

B6: let-7 guide / g2-21 target, G:U at positions 4-5 (dsRNA)
RNA 1: GAUACUAUACAACCUACUAUUUCAACCU
RNA 2: UGAGGUAGUAGGUUGUAUAGU
modifications: 2'-O-methyl C and U around a phosphorothioate (CmCpsmU) in target
Question: With B6 as the binder, how does the binding signal [5] read?
Answer: 120 fold lower affinity
